This is an account of results in publication PMC11344481 (Journal of proteome research, 2024).

Series [1] has as its target malate dehydrogenase (human (endogenous in heart tissue)) (UniProt P40925). Kind of series: native MS.
The series “native MS” deals with the molecule itself. Kind of series: native MS.

A word on the stoichiometry N: it is a count of units in the complex or per binding partner. As to “malate dehydrogenase (from UniProt P40925 1-334) (enzyme)”, the stoichiometry N in series [1] stood at 2.

B1: S100-A1 (natural protein, human (endogenous in heart tissue), UniProt P23297 2-94, looked up)
chain: GSELETAMETLINVFHAHSGKEGDKYKLSKKELKELLQTELSGFLDAQKDVDAVDKVMKELDENGDGEVDFQEYVVLVAALTVACNNFFWENS
modifications: N-terminal methionine removed and N-terminus acetylated (primary proteoform)
With B1, the “stoichiometry N” value in the series “native MS” is 2.
